Reference: the supplement of paper PMC12042874
± gives the uncertainty stated by the source.

Experiment: amyloid nucleation score (Sup35N fusion, yeast selection) (log enrichment); library NNK3; higher = more nucleation; inactive = no reads after selection
Method in brief: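 The nucleation score is the DiMSum log enrichment of output over input reads, centred on the mode score of non-aggregating sequences. Only sequences with 100 or more input reads were scored, using Illumina sequencing of input and output plasmid inserts. Psi-negative yeast expressing Sup35N fused to peptides of 20 random codons were induced 24 hours with 100 μM copper sulfate and grown 7 days at 30°C on medium lacking adenine and uracil.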

| Substance | amyloid nucleation score |
| --- | --- |
| GRGTYGSNPYRGLDIYRYDG | inactive |
| GRHNKCMVDLVEDFQLASIW | inactive |
| GRLSTAICFCGTMPSRWGFS | inactive |
| GRPICNYCRYVVVSVSMRRQ | inactive |
| GRRMSNLEKPVLLDIKANFL | inactive |
| GRWMMWFIEFYNGRQESWGN | inactive |
| GSCWLDVCQDCKSFSILS | inactive |
| GSFAGCMGCLCYILVCSVYR | 0.717 ± 0.12 |
| GSGHAVIEVIRRFCSEDDNK | inactive |
| GSLCLSGKKIVFLHMNEAMG | inactive |
| GSLYFSCINPM | inactive |
| GSNQMPDPPHWPRDYNAEKR | inactive |
| GSQYNSFSK | inactive |
| GSRVLKAWGSLSLILTSYDG | inactive |
| GSSCRRINTEYSLAAYQSYE | inactive |
| GSSIEPDWL | inactive |
| GSSRQNY | inactive |
| GSSRRKKLTV | inactive |
| GSTTWYDLMIYLDME | inactive |
| GSVTEGFVGLG | inactive |
| GSVVTQGCGNLTLEAA | inactive |
| GSVYETNDTELLRVTLR | inactive |
| GSYSGM | inactive |

| Substance | amyloid nucleation score |
| --- | --- |
| GTALLRFGIVGPNDLVRLCC | inactive |
| GTEDWPNHGKKTLAINYLCP | inactive |
| GTISIGSIRAVLLAFPFYAL | 1.08 ± 0.13 |
| GTMVSEIDWVRLTYTGYSE | inactive |
| GTNWCGIFLNFLLFVML | inactive |
| GTQLFFYMMCARFKDNL | 0.195 ± 0.38 |
| GTRIFSRDVISSGFQGSICL | inactive |
| GTTRATPSGPLCMNGKENVV | inactive |
| GTYCFINLTTRTGDRKGRHA | 1.05 ± 0.12 |
| GTYLKNF | inactive |
| GVCGVLGFYFDPIITSL | inactive |
| GVCRVVRSNHCMLWFRLDSS | inactive |
| GVEMHVFWDLA | inactive |
| GVFGESS | inactive |
| GVGSRG | inactive |
| GVHDRLTVSRFCLGVNGDGV | inactive |
| GVKTHGIAVMKVGLRRLCQG | inactive |
| GVLEAFLTDIIPMYGYVRVA | inactive |
| GVLLFLYCYLRGPLYSTTSV | inactive |
| GVLLNTSELGSNGMDSKTLD | inactive |
| GVLSCLSIMIAISGLPGSEK | 0.801 ± 0.2 |
| GVLTTALVGTCWPSTCFYGL | inactive |
| GVSISQPTILQWSTVRTSID | 0.04 ± 0.85 |

| Substance | amyloid nucleation score |
| --- | --- |
| GVSVCVGDVGNLAAFECFRA | inactive |
| GVYVWFAALNNPTVEGFLNS | inactive |
| GWELTFRSEF | inactive |
| GWLGSVGAKPADRVGKTGGI | 0.504 ± 0.24 |
| GWMSATVLFQLSE | inactive |
| GWNSFPRPLYPRWDNSESAS | inactive |
| GWNTSSQRLHSAKPSHHRR | -0.892 ± 1.9 |
| GWWRMAWLV | inactive |
| GWYLFC | inactive |
| GYDQKLES | inactive |
| GYESLYRQHLYDSSLCWESR | inactive |
| GYFFGTTKKCETFTCMRWQV | inactive |
| GYMDAGIDWF | inactive |
| GYMRSLYIRYYSRRRFRCI | inactive |
| GYMWNRVGCLVEDDHNEGVN | inactive |
| GYQNVSTHRVKALAHRIWVG | inactive |
| GYYFWQWLRIIL | inactive |
| HAGATL | inactive |
| HARFNVRNN | inactive |
| HASMQFWKVDNSFNALMRLG | 0.398 ± 0.18 |
| HASSHYT | inactive |
| HCCVLSARGWLIGSMRWPHC | inactive |
| HCLSHTLQHNHTMISANSRS | inactive |

| Substance | amyloid nucleation score |
| --- | --- |
| HCQQGS | inactive |
| HCQSRRWTKFLYMGWLPSSS | 1.55 ± 0.1 |
| HDNQFYVMLWAISAAYRLAS | inactive |
| HECVYYSSLTQSYVSVYIFT | 2.65 ± 0.077 |
| HENYEFLFWWRESFS | inactive |
| HEVLVVIRNLFDFVVFCVLQ | inactive |
| HEYKCKL | inactive |
| HFPAGFFSNWFCSIYYKVY | inactive |
| HFPTCWVGYVKHAVLRYLIY | inactive |
| HGAVRQLNRGRKWSSLETVG | 0.85 ± 0.19 |
| HGFSVTILTRVLTVGNSRRS | inactive |
| HGGMVSMGGNKQ | inactive |
| HGKSYILVWCMRHSRTECVR | inactive |
| HGKVGKRFRLGQKAYVSGLW | inactive |
| HGMVRCKSDQACDSMVGCVR | inactive |
| HGRLLYVSYISDMINASYGQ | inactive |
| HGTIVIDYRHSPW | 1.07 ± 0.1 |
| HGTKREKIYLYGYCPDKNHH | inactive |
| HHKAEGAHVKITDLSFDVKS | inactive |
| HHLKGQ | inactive |
| HHTKILSSYISWVYILITNS | inactive |
| HHYCRGSICESVSQMYWISW | inactive |
| HIEFNWPVGLARSWMFCFSH | inactive |

| Substance | amyloid nucleation score |
| --- | --- |
| HIPGNLYYKDTFRCAELGHW | inactive |
| HIWVCHWRYYVIMLPRSAWI | inactive |
| HKILRSVGFGRILAYGLLDI | inactive |
| HKQCWYILVNVRLMSRSRRV | 0.818 ± 0.13 |
| HLELDFNFSVLHTYCYFLAP | inactive |
| HLFSNTWYTK | inactive |
| HLIST | inactive |
| HLKCLGNKACEGRVITHVAD | inactive |
| HLKSVGVVYDWMSQWSLWCR | inactive |
| HLLELELVFSILRRLMYWPM | inactive |
| HLLIHANF | 1.25 ± 0.14 |
| HLPKLLYATFKWSRYSSKFA | -0.172 ± 1.3 |
| HLPRKLVRPRRF | -0.415 ± 1.2 |
| HLRLYCHPMNFRWHRRYYEP | 0.249 ± 0.4 |
| HLSFDIVV | inactive |
| HLSWNSLTDRNVLC | inactive |
| HLSYKSQLS | inactive |
| HLVAVWVSWGILYRSVHCRS | inactive |
| HLWVSVVNSTESSMTMA | inactive |
| HMGNKRLCYCSSR | -0.326 ± 0.87 |
| HMLSNFGARVREYIAMFGRL | inactive |
| HMSVVSVFIRRMPNASSTRR | 0.562 ± 0.13 |
| HMVSFAERTVSDVGTVNPGQ | inactive |

| Substance | amyloid nucleation score |
| --- | --- |
| HNCASCSVRVHDSQSEKIAT | inactive |
| HNLVSSSSTCCRRHPCMAG | inactive |
| HNNLLSCYLMAPVFHSMMSE | inactive |
| HNRLEAMFY | inactive |
| HNSRFPSF | 0.338 ± 0.58 |
| HNYLRS | inactive |
| HPESCPGLGSLSGEPR | inactive |
| HPLDYTVGSVVMGV | inactive |
| HQISFSM | inactive |
| HRDETGVHAVALSKSVWYKW | -1.07 ± 1.1 |
| HRDYFFRPTFL | inactive |
| HRIVSFYRNSWVPSIFVYED | inactive |
| HRKIRFGYSL | inactive |
| HRRLGRTFFCATLGLHLCDF | inactive |
| HRSNCDYDIQYVYIFFS | 2.36 ± 0.063 |
| HRVIWSFSFVRSDFCFPYCA | inactive |
| HSCITFSLPCTFRQRFCLLS | inactive |
| HSELW | inactive |
| HSKFWFCLFRIFQVSGLFNR | inactive |
| HSLVSLWYGSRCIILSR | inactive |
| HSNVGCKFAIKYSLAFCGVK | inactive |
| HSRAVLTLLW | inactive |
| HSRTYFQSISGWISCLMSTL | 1.13 ± 0.11 |

| Substance | amyloid nucleation score |
| --- | --- |
| HSSCGNEVFFDSSVGSNRIL | inactive |
| HSSGDTWLGRV | inactive |
| HSSSLLRLQPVVHYLLLNVD | inactive |
| HSVIPWDTISDTA | inactive |
| HSVIRRFNIPMELYHMWLIS | inactive |
| HSVIVVCVFSYELFEFHSAV | inactive |
| HTVVPNRVNSPCVWWLFFVW | 1.3 ± 0.11 |
| HTWFNFVYEVRSNKLTP | inactive |
| HVAGTCAQLTLFKDIGLTYK | inactive |
| HVDPCWQKTFTMMLFWVFLR | inactive |
| HVFRLAWTMKLWEADTLS | inactive |
| HVKDVMQRNFRVMGSSSR | inactive |
| HVLKDARCDS | 0.181 ± 0.36 |
| HVNNTKSSLVRLSVLMHSVS | inactive |
| HVTRLVFMNSRYVAKFVGRA | inactive |
| HWACNWI | inactive |
| HWHMIMIKCQLEFTKEVIRA | inactive |
| HWSFQTVIDYGHPKFF | 1.45 ± 0.15 |
| HWTNHYNYCGRA | 1.19 ± 0.082 |
| HYAVQYTNRYKGFKLHKQHN | inactive |
| HYPIRERNAFLLNNDVDLLA | inactive |
